Laboratory results taken from the supplement of paper PMC6755084.

B1: F1*; the commonest letter at each place (parent)
chain: GAGACCGCAACTGAAAAGTTGTTATCACTTGTCGTAAGACACTTTGGATGGGTTGAAGTTCTGCACGTAGAAGCAAAAGGC

Variants of: B1
Experiment: fraction ligated after 30 min (ligated reads / total reads); higher = more ligase activity
Details: with F1*sub RNA substrate (template-directed ligation), 42 °C
How it was run: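 The ligase ribozyme variants were produced by PCR amplification of oligo-pool templates, T7 transcription and purification on gel. Their ligated and unligated forms were gel-separated, then reverse transcribed with barcoded primers before MiSeq sequencing. Core bases were filtered at a quality of ≥20, and fraction ligated per variant was ligated reads over total reads.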

| Variant | fraction ligated |
| --- | --- |
| A37T A56C | 0.786 |
| A37T A56G | 0.807 |
| G38T A48C | 0.757 |
| G38T A48T | 0.129 |
| G38T A48G | 0.792 |
| G38A T44G | 0.848 |
| G38A T44C | 0.818 |
| G38A T44A | 0.838 |
| A37G C40T | 0.854 |
| A37G C40A | 0.807 |
| A37G C40G | 0.829 |
| A39T A57T | 0.781 |
| A39T A57G | 0.869 |
| A39T A57C | 0.792 |
| A39C G46A | 0.802 |
| A39C G46C | 0.764 |
| A39C G46T | 0.776 |
| A39G G50T | 0.789 |
| A39G G50A | 0.671 |
| A39G G50C | 0.507 |
| G38A T43G | 0.8 |
| G38A T43A | 0.835 |
| G38A T43C | 0.816 |
| G38C C42G | 0.843 |

| Variant | fraction ligated |
| --- | --- |
| G38C C42A | 0.857 |
| G38C C42T | 0.841 |
| A37T T49C | 0.733 |
| A37T T49A | 0.802 |
| A37T T49G | 0.791 |
| A37G T49G | 0.807 |
| A37G T49A | 0.796 |
| A37G T49C | 0.744 |
| G38C A57C | 0.824 |
| G38C A57T | 0.828 |
| G38C A57G | 0.87 |
| G38T T49C | 0.204 |
| G38T T49G | 0.76 |
| G38T T49A | 0.757 |
| A39T C42T | 0.829 |
| A39T C42G | 0.817 |
| A39T C42A | 0.846 |
| A37G T45C | 0.803 |
| A37G T45G | 0.407 |
| A37G T45A | 0.804 |
| G38T C42A | 0.842 |
| G38T C42G | 0.845 |
| G38T C42T | 0.851 |
| G38A A48C | 0.766 |

| Variant | fraction ligated |
| --- | --- |
| G38A A48T | 0.252 |
| G38A A48G | 0.796 |
| G38T G50A | 0.386 |
| G38T G50T | 0.723 |
| G38T G50C | 0.134 |
| A37T T43A | 0.848 |
| A37T T43C | 0.806 |
| A37T T43G | 0.804 |
| G38A A41C | 0.782 |
| G38A A41G | 0.765 |
| G38A A41T | 0.793 |
| A37T G46T | 0.784 |
| A37T G46C | 0.8 |
| A37T G46A | 0.807 |
| A39T A48T | 0.541 |
| A39T A48G | 0.778 |
| A39T A48C | 0.633 |
| A39G G46A | 0.843 |
| A39G G46C | 0.781 |
| A39G G46T | 0.783 |
| A37T A39T | 0.831 |
| A37T A39G | 0.837 |
| A37T A39C | 0.785 |
| G38T A39C | 0.79 |

| Variant | fraction ligated |
| --- | --- |
| G38T A39G | 0.798 |
| G38T A39T | 0.817 |
| A37T T45G | 0.408 |
| A37T T45C | 0.768 |
| A37T T45A | 0.787 |
| G38T G46T | 0.782 |
| G38T G46A | 0.801 |
| G38T G46C | 0.787 |
| A39T A56C | 0.761 |
| A39T A56T | 0.807 |
| A39T A56G | 0.78 |
| A39G T44A | 0.816 |
| A39G T44C | 0.849 |
| A39G T44G | 0.836 |
| G38C T49C | 0.0586 |
| G38C T49G | 0.255 |
| G38C T49A | 0.233 |
| A39G A41G | 0.791 |
| A39G A41C | 0.781 |
| A39G A41T | 0.796 |
| G38C T45G | 0.0325 |
| G38C T45A | 0.551 |
| G38C T45C | 0.0602 |
| A39C G47C | 0.349 |

| Variant | fraction ligated |
| --- | --- |
| A39C G47A | 0.757 |
| A39C G47T | 0.3 |
| G38A C42A | 0.854 |
| G38A C42T | 0.87 |
| G38A C42G | 0.837 |
| A39C A41G | 0.741 |
| A39C A41C | 0.792 |
| A39C A41T | 0.751 |
| A39G A56T | 0.781 |
| A39G A56C | 0.787 |
| A39G A56G | 0.792 |
| A39C A48C | 0.0845 |
| A39C A48T | 0.465 |
| A39C A48G | 0.776 |
| A37G G50C | 0.45 |
| A37G G50A | 0.659 |
| A37G G50T | 0.785 |
| A39C A57T | 0.798 |
| A39C A57C | 0.827 |
| A39C A57G | 0.786 |
| A39T G46C | 0.64 |
| A39T G46T | 0.771 |
| A39T G46A | 0.805 |
| A37T G47T | 0.346 |

| Variant | fraction ligated |
| --- | --- |
| A37T G47A | 0.806 |
| A37T G47C | 0.178 |
| G38C G47A | 0.306 |
| G38C G47C | 0.0356 |
| G38C G47T | 0.045 |
| G38C G46A | 0.791 |
| G38C G46T | 0.697 |
| G38C G46C | 0.523 |
| A37T A48G | 0.804 |
| A37T A48C | 0.763 |
| A37T A48T | 0.675 |
| A37G T43G | 0.814 |
| A37G T43C | 0.853 |
| A37G T43A | 0.867 |
| A39C G50C | 0.123 |
| A39C G50T | 0.503 |
| A39C G50A | 0.292 |
| A37T C40A | 0.809 |
| A37T C40G | 0.82 |
| A37T C40T | 0.842 |
| G38C G55T | 0.768 |
| G38C G55A | 0.826 |
| G38C G55C | 0.321 |
| G38T T44G | 0.828 |

| Variant | fraction ligated |
| --- | --- |
| G38T T44C | 0.831 |
| G38T T44A | 0.823 |
| G38A G50C | 0.194 |
| G38A G50T | 0.72 |
| G38A G50A | 0.391 |
| A39T C40T | 0.809 |
| A39T C40A | 0.818 |
| A39T C40G | 0.808 |
| A39G T49C | 0.714 |
| A39G T49A | 0.805 |
| A39G T49G | 0.791 |
| G38C A56C | 0.209 |
| G38C A56G | 0.7 |
| G38C A56T | 0.813 |
| A39G T43C | 0.814 |
| A39G T43G | 0.815 |
| A39G T43A | 0.838 |
| G38T A41C | 0.785 |
| G38T A41T | 0.798 |
| G38T A41G | 0.792 |
| A37T A57T | 0.838 |
| A37T A57C | 0.854 |
| A37T A57G | 0.842 |
